Measurements from a protein production outcome set (Wang et al. 2014).

Assay: label from the status in PepcDB records

In the case of “VLIIPGGGYRRIVYEREGLDVGRWIAGQGYTAFILSYRMPSVNGYYSFADAKNALNFISYWAGMSERTFKSVGCMGFSAGGHLAGYITHLHYEEETSVRPDWMALIYPVISLDRSIAHQGCRKRLLDAGESEYSASLENSVTEYMPPVFIVHATDDKDVPVIHSLRYFNSIRDKGHHAEAHFFDKGGHGFGVSGKNGYPIEKWQSLLLEWLAEH”, the protein production is reported as “failed”.
For “MTTARPAKARNEGQWALGHREPLNANEELKKAGNPLDVRERIENIYAKQGFDSIDKTDLRGRFRWWGLYTQREQGYDGTWTGDDNIDKLEAKYFMMRVRCDGGALSAAALRTLGQISTEFARDTADISDRQNVQYHWIEVENVPEIWRRLDDVGLQTTEACGDCPRVVLGSPLAGESLDEVLDPTWAIEEIVRRYIGKPDFADLPRKYKTAISGLQDVAHEINDVAFIGVNHPEHGPGLDLWVGGGLSTNPMLAQRVGAWVPLGEVPEVWAAVTSVFRDYGYRRLRAKARLKFLIKDWGIAKFREVLETEYLKRPLIDGPAPEPVKHPIDHVGVQRLKNGLNAVGVAPIAGRVSGTILTAVADLMARAGSDRIRFTPYQKLVILDIPDALLDDLIAGLDALGLQSRPSHWRRNLMACSGIEFCKLSFAETRVRAQHLVPELERRLEDINSQLDVPITVNINGCPNSCARIQIADIGFKGQMIDDGHGGSVEGFQVHLGGHLGLDAGFGRKLRQHKVTSDELGDYIDRVVRNFVKHRSEGERFAQWVIRAEEDDLR”, the protein production was “not failed”.
In the case of “MSSSKKPSQQPSQINLSAEIGQFISLNQEAFAELLTFIDFAEKFTLGLVEVNFPPDVDLLIAALQNNPDCENIQFFILKCVDANLRFLRDEIIKRLSEIELESNKKLVLIVRGLENAIGVFGEYPPVLQDLNFVRDAYKRTVPHPILFILPDYAITRLAKFAPDFWAWRSGIFRFKTPAITKENAINQVKNSEILDRIEPPEKQERIDLLHRLLMEEKPTGQQVTDGNLRSYSNILHQLGQAYLSHIKPEKAREYLEEAERISENLQDELFQAEVINTLGDTYSLQRQFNLGIKYYEKSLLIARRLENRLSEINALFKLGNAYLDLRQFSQAAKFYQQCLDIEQEIGDRYSQASTYHELGRVAQNLREWEQAKTYYQQALDITIEFGDRYNQASTYHQLGMVAQKLRKWEQAKTYYQQALDITIEFGDRYNQARIYHQLAIVAQNLREWQQAKTYYQQALDLKIEFGDRYNQASTYHQLGMVAQNLREWEQAKTYYQQALDITIEFGDRYSQASTYHQLGIVAQNLREWEQAKTYYQQALDLKIEFGDRYSQASTYGQLGTLAEAQENYVEARLNLQTALEIYVEYKDEHWAGIARKILDELPE”, the protein production is reported as “failed”.
With “MGLGMEIGKLIVAFLVLINPFSALSLYLDLTNGHSTKERRKVARTAAVAVFAVIAVFALIGGALLKVLGISVGSFQVGGGILVLLIAISMMNGNDNPAKQNLGAQPETGQARPARNAGAIAVVPIAIPITIGPGGISTVIIYASAAKTYSDIALIIAAGLVVSAICYAILIVAGKVSRLLGATGLTILNRIMGMMLAAVSVEIIVSGLKTIFPQLAG” the protein production was “failed”.
With “MMSTTLNTRQATTADIPFLARIEYEASLPPLNHCFWDDLLDGTGTTALQFIEAELKADACNWGNVPDFLILEAGGQPVAAAAGYVPGTDDYCPLCLSQLGAIAKELNWGEETLEGFREHYVGLWGGNLRPLFLTPQATWIIENVAVLPEARGQGFGKALLRALLAKGRSQGHEFAGIMVINGNDRARHTYESVGFKPYQTFYKDYFWEQFKIDFPGVTKFGMRLN” the protein production was “failed”.
For “MSIRIKLFLAFLLTTFVVVMGMHFFTRWSLEKGFTEFIEKRQQERLDKIIDVLEEHYAEHRGWGELAGNKQHWISLLWHAGPHRHRPPKWIIEQAQHEPDRQWPPAVTPGTAERKWSPFELRVILLDADRSILFGRKELISQLSLHPVQYEHRTVGFLGLLPGNPVSQASDIYFMEQQADFFFWIALTMVVLSALIAWLMAYHLGRPLKQIAAVVQRLATGDYKARLPVISKDEMGQLALNFNDTAAALEQAEQSRRRWVADISHELRTPLAVLRGELEAILDGVHPLTPAAIESLSGDVLRLNRLTEDLYQLALSDQGALSYRKVLLDPVPLLREDLATFTTDFNHKQISVRWINRLFKPVLVNADPDRLSQLFRNLLTNSLNHTDARGQLEITVQRLADKLVIELADSSPGVSDQDIAHLFDRFYRVDHSRNRHLGGAGLGLAICSNIVRAHEGTLMASHSALGGLAIHIELPITP”, the protein production was “failed”.
With “SLRPPLPPATPQEVQFVQHMLQHHAQALDLAAPMLERSQQRTVRSLALDIQLSQREQMRQMEAMLGRWGQPPGEPISPEHARMMGMASEAEVAGLSTLPVEQAERQFLRLMIRHHQGAVAMTLPMLDAAARPEVERLARQIVVTQRGEIRTMEGVLGRLDGEVPAAPMRPVEHGHGH” the protein production was “not failed”.
For “MRPRRWFAILVCLCCLVTAAWPAEVKGENKKKERLAVVTVDRVNVRQGPGVPYRPLANVHRGETYRLIDIKDGWLKIEWKKNKIGWIAASYAAPVREMEIVQEDRLRLRQEPGLDGRIIGHLAQGDQVIVIKEKGEWKQIVTKKAVGWVAASYLADAESPTGSRQTGVVTADSLNVRVAPSLDAERIGRLLHGERVEIVETKRDWYKIVTRSGLGGWVAAEYIEMKNGQAVGNPEEAVAESASPAAVDLVTIQGNGPRQYVKKWTRTPVQVLAGKTIVLDAGHGGKDGGAESVNGVTEKTLTMETAERLKEKLETYGARVVLTRVNDDYVPLSARVATARLYQADAFISLHYDSAEDEDASGITAYYYDRFADYGLAQSFQGPFSKLSALPFRGLAFGNYYVLRENERPSVLLELGYLSNRSDAEVVATDSYQETVTTAIVNAVRHYFQ”, the protein production was “failed”.
For “MFLFMVSRNFSRRDFLKMTAGGVVLASAMPTLSWASLPDEPRVLAMNNLNTGELLETCYFDGNRYVGKELQRLNEFCRDHRRNEVHPMDKRLFDQISQIQKLIGTESEVIVISGYRSPVTNASLRSGSTGVAKKSLHMEGKAIDFRLDGVKLSTVRDAAISLKAGGVGYYPGSNFVHIDTGAVRSW”, the protein production was “failed”.
In the case of “MFKTILLAYDGSEHARRAAEVAKAEAEAHGARLIVVHAYEPVPDYLGEPFFEEALRRRLERAEGVLEEARALTGVPKEDALLLEGVPAEAILQAARAEKADLIVMGTRGLGALGSLFLGSQSQRVVAEAPCPVLLVR”, the protein production is reported as “not failed”.
In the case of “MRPGQELAGPGLRQPRTGVPRRRHRRLPRRHRPAIVSLPPSYGPSMPDAHPPPSPSKDRSFAARVQTGALVIIAFAVVLALLVQAQFILISLAVSVILFSLTSDAIALVARVRFGPVKIPNWLASSLALLLLAIVLLSLAAVIVSQVNTVLLTALSYSEQAPAAVAAIFSWLGKDAEEAVLSSLRAVEISGYLRTLAAQAGTLMQATVLVILFVGFLFAERVWFPVKLLNLFGNPDRARRVEEIVSSIMHRVNRYLLVKTLVSAITGLLVWGVAMAFGLDLAAPLGMLTFILNFIPSLGSIVATLLIVLVTFVQTVDVSTALSVLALVGVIQFICGNILDPMLMGRALQLSSFGIIISLAFWGAIWGIPGMFLSVPIMVGLMIVCAETEALRPIAVLLSREGLAAPMHPERPAAPPRAEPETETVASRRVGL”, the protein production is reported as “failed”.
For “MSLSNTPIELKGSSFTLSVVHLHEAEPEVIRQALEDKIAQAPAFLKHAPVVINVSGLESPVNWPELHKIVTSTGLRIIGVSGCKDASLKVEIDRMGLPLLTEGKEKAVRPAPEGHHHHHH”, the protein production was “not failed”.
With “MWAYLAILAMAYVTYKTKALDIKGIIAALLLGVIIVTLGGIIPFIALLAFLVMGTLATKFRYREKRKMGLIDESIRSVGNVLGNGLAPLLFVIVEFIIKQDFGWAGVLSSIAVANADTLASEIGKVFGKNPRIITNLKPAKPGEEGAVSFAGEFAALLGAFVISLFGLSLTEYGIQMIVSVTLAGLIGANIDSLIGATFEKNGYFGNNMTNFIATLLGGLLGMALFLLLV” the protein production was “failed”.
For “MKNPDYEPSKPHHTPDGFRNRYPHAPRDSNGSAWKWMRERRRLGLPKPPTADLSCVPPDLAAIRRPSAVPQVTWIGHETLLLQIDGLNVLTDPVFGERASPLPFAGPRRHQPPGLSLAQLPHIDLVLLSHNHYDHLCRASVRALMRQPGGAPMFFVPLGIDRWFKRHVRGTRLSGEHVNVRAFDWDTEARFGPFSVHFCAVQHWSARGLYDRNRTLWGSWALLHPQLRFWFSGDLGYSQDTRDIGARFGHFDVAAIAVGAYEPRWFMKTQHIDPAEAVQVMQDIGARHAVGIHWGTFPLTDEPLDQPIADLANALRARDIDAERFVLFRHGETRVWDAQAARLLTPAEQQKARPRVDSLAAQ”, the protein production was “failed”.
For “TAQLTIEAVPSNAAEGKEVLLLVHNLPQDPRGYNWYKGETVDANRRIIGYVISNQQITPGPAYSNRETIYPNASLLMRNVTRNDTGSYTLQVIKLNLMSEEVTGQFSVHPETPKPSI”, the protein production was “not failed”.
